Data as given in the RNAGym collection of RNA variant scans (doi:10.1073/pnas.2313332121).
Fewer inactive variants are shown than the library holds.

B1: TPR 5TU (parent)
chain: GGAUCUUCUCGAUCUAACAAAAAAGACAAAUCUGCCACAAAGCUUGAGAGCAUCUUCGGAUGCAGAGGCGGCAGCCUUCGGUGGCGCGAUAGCGCCAACGUUCUCAACUAUGACACGCAAAACGCGUGCUCCGUUGAAUGGAGUUUAUCAUG

Variants of: B1
Test: polymerase ribozyme fitness, log enrichment relative to wild type (log ratio); higher = more active; in vitro selection for triplet polymerase activity
Summary of the method: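 A heterodimeric triplet polymerase ribozyme had each of its subunits mutagenized by PCR into a library, which was transcribed. One round of in vitro selection, done in triplicate, annealed each library with a biotinylated primer, its partner subunit and triplets, then incubated it frozen at −7 °C before gel excision of extended constructs, streptavidin-bead capture and RT-PCR. Fitness is the logarithm of genotype enrichment relative to wild-type enrichment, based on Illumina sequencing of inputs and outputs and inverse-variance-weighted replicate averages. A base-2 logarithm is used, and genotypes were kept only with ≥10 input reads and ≥1 read per output.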

Variant | polymerase ribozyme fitness (log ratio)
C57A G80C A137C G143U | ≤ -4.2
A16U G94C | -2.55
C18G A29C C35A A89U G128A U144G | ≤ -4.2
C85G U90A C114A | ≤ -4.2
A24U C51U G59C G83A G84U C131U | -3.74
C57U A142C | -0.377
A3C C35U C75A C129G | ≤ -4.2
G83C C116A U146G | -3.27
U9C U15G C93A | ≤ -4.2
C10U A47U G59C A60G G62A A110U G141C U145A U148A | ≤ -4.2
C95G C96U | -2.05
U31G U53A A89C C93G G100A A137C A147U G152C | ≤ -4.2
G128U A137U | -3.34
C14U A19U U55A | -1.9
A39U A41C A98G | -2.72
C35U C85A | -1.42
A20U A47U A49C U53A G80C A91U C96U A137G G140U | ≤ -4.2
A19C A20C A40G U55C G71U G84A A138U U139A | ≤ -4.2
C27U A37C A52C C87U G88C | ≤ -4.2
C36A C57U A66C C99A | ≤ -4.2
A24G U53A C95U | ≤ -4.2
C32G C51U U53A G94A U101A A122G | ≤ -4.2
C54U U56A G81A C95A U101C | -1.35
C18G A21G | -0.433

Variant | polymerase ribozyme fitness (log ratio)
C8A A12G A17G U56A A97U A147C | ≤ -4.2
A40C A41C G58C A91U G124A C125A | ≤ -4.2
A3U G83A | -1.47
A3C U31G C51U A60C A122C G140A | ≤ -4.2
A26C U45G C63U C75U G80C G112C U144G | ≤ -4.2
A24C A28U A37U U134C | ≤ -4.2
A39G U56G G58C C79U U102A U127G | ≤ -4.2
C54A C87A | -4.19
A66C G92C C96G A120G | -4.14
C76A U104C | -3.57
A17G C27G A66G A107G A115C | ≤ -4.2
C99A G136A | -0.217
U7C G50A G84U C87A U151A | ≤ -4.2
C5G A19C G42U C79U C105U G126U | ≤ -4.2
A26U C72G G81A G86C | ≤ -4.2
G58C U139C | -3.3
A52C G80C | ≤ -4.2
G42C A60U G92U A119U C125A | ≤ -4.2
A41U C87A A120C U139C A142U | ≤ -4.2
A23C G46C A47G G84U C87A C93U U109G | ≤ -4.2
G68A C79U U139G U146C | ≤ -4.2
G46U C54U A73U | -3.31
A39C G143U | -4.15
A30U G58C U90G C95A | ≤ -4.2

Variant | polymerase ribozyme fitness (log ratio)
C35A A64C A98U C99U G152U | ≤ -4.2
C57A C93U | -1.11
G42A C116G | -3.99
A22G A30U C36G G83C U146G | ≤ -4.2
A37C A115U | -1.16
U56A C95U C96G A110G A119G G152U | -4.13
C54A C105U A121G | -0.876
U53A C72U A97G U134A | -3.33
C14A U102G | ≤ -4.2
U82G C95G G126C | -1.07
C14U A19C C76U C99U | -3.03
A40G C125G | -2.5
A22U U82A C96U | 0.375
C18G C35U C75U C95U A120G U134C | -2.68
U55A G86U U145G | -1.41
U6C C8A U111G G143C | ≤ -4.2
C54U G58C | -0.858
C51U C57A G83C A106G | -0.97
C63U C85U C87U | -0.425
U4A A28U C93U A97U C105G G126A G136U | ≤ -4.2
C54U U55G G58A A64U G88A C95G U127A | ≤ -4.2
U6G C35U G58C C96U A113C U135C A147U | ≤ -4.2
C10U U13G U45A G46A G58C C63U G141U | ≤ -4.2
A41C C79U G94U G100A C125A | -2.23

Variant | polymerase ribozyme fitness (log ratio)
A24U A37U U82G | -0.974
A47C A66C G83C U104C G126C U130C C132G A138C | ≤ -4.2
G92U A106G | -0.318
U56A U101A | -0.244
C38A U145C | -0.328
U15G A17G C38A G62C G81A C85G | ≤ -4.2
C76G G88A G136A U139G | ≤ -4.2
A40C U44G U53A C87G A107U A121U G124C U130A G143A | ≤ -4.2
A47C C51U G58C G70A C96U A106U U151C | ≤ -4.2
U55G A60G | 0.467
A16G A20U U33G C85A G94A A150C | ≤ -4.2
U33A A41C C87A U130G A147G | ≤ -4.2
A24C C54A A60G A73U U77G | ≤ -4.2
U7G A47C A49U G86U C99U | ≤ -4.2
C87U A110G G112U | ≤ -4.2
A21C U53A G58A C95U U101G C116A | -0.162
A23U C36U C85A C96G A97U | ≤ -4.2
C75G A97U | ≤ -4.2
A52C C87A G92C G141A | ≤ -4.2
C18U A60G U82A G141C | -0.334
A20C A24U C93U U130G A150G | ≤ -4.2
U56G U82A A89G C95U G133C | -3.49
A40G A52U A91C C108U G143C U148A | ≤ -4.2
G25U A66U C93U G94U C125A G126U | ≤ -4.2

Variant | polymerase ribozyme fitness (log ratio)
A16G A20U C118U A137U | ≤ -4.2
U4A C54U U56A C79G C85U C103G C116U G143C | ≤ -4.2
A3C U4A U56G C57U C132A | -4.08
U6A A22C C75U G84A A97G C108G A113C C116A U135G | ≤ -4.2
A41C G48C C57U G84A | -2
G88A G124C | ≤ -4.2
A20G A21C C93A A97G | -3.83
A28U G42C U44C C75G C96A A115G | ≤ -4.2
G83U C149U | -1.76
C10U C14G G34U U56G | ≤ -4.2
A60G G68U G80C U139A | ≤ -4.2
C8A A12U C35G G92U C103G | -3.99
C8A A19G G62A G67C C93A A97U G112U A142G U148A | ≤ -4.2
G25C G46A U144C | -4.12
A3C G88C | -4.14
A12U A19C C95U C105A | -1.03
C18G C93U G143U | -3.08
A16G A21C C27G G59A G67C U145G | ≤ -4.2
G71A G80U C85U | ≤ -4.2
A17G A52G C85G | -2.03
C69U U78A A97U G143C | ≤ -4.2
U56G G68U | ≤ -4.2
U90C G92A C123A G126A A147C | ≤ -4.2
C51A G67A A73G C95A U101G G140U U151G | ≤ -4.2

Variant | polymerase ribozyme fitness (log ratio)
G11U C18G G58C A60C U78C G83A C96U A115C | ≤ -4.2
G50U U146C | 0.0837
A20C C85A G126C U144A | -0.594
A19G G83C | -1.11
A21C A52C G68A U101G | ≤ -4.2
G62C A113U G117A A137C | ≤ -4.2
G84U G117U C123U G141A U146A | ≤ -4.2
A12U C85A C96A | -2.97
C108U A115G | -3.94
C36A A49C G71U G92A A107G U145C | ≤ -4.2
G88U G117U A142C | ≤ -4.2
A39G A73G U109A A119U | -3.91
C85U G92U C125A G136C | -3.55
U33C A60U A73U A122G | -2.54
A28U G50C C76U C85U C103A C118U U144G | ≤ -4.2
A41G G88A G143A | ≤ -4.2
C36U A73U A138U G140C | ≤ -4.2
A29C A49G C87A A150G | ≤ -4.2
U31A A39U C93G C95U C99U A107G A113U C132U U135C A138G | ≤ -4.2
U102G U104C | ≤ -4.2
C10G A28U C54U C85G C116U | ≤ -4.2
U15G G84A C96A A119U | -2.08
A22G U130A | -1.59
A23G C85U C95U G133U | -4

Variant | polymerase ribozyme fitness (log ratio)
C14A U15C A19C A20C U45C G86U | -4.11
A26U U148A | -4.11
C35A A39G G141U | ≤ -4.2
C75U C96A G128U | -3.56
C14U A17U A28G U44A A73G C95A G100U A106G A115G | ≤ -4.2
C79U C93U | -3.03
G86U U102G A150U | -3.59
G11C G58A | -1.65
U31A A39G G67C C72G C96U A107U A113G A115C U148A | ≤ -4.2
C18G C85A | -1.49
C57U C69G G84A C85G | ≤ -4.2
A19C A29U A39U A60U C76U C95U U144A | ≤ -4.2
A17C C54A | -1.11
A40C A64G G83U G133C A138C | ≤ -4.2
C51U G67A C72A C123U C132A U134C | ≤ -4.2
G84U U127A U134G | ≤ -4.2
C99G U144A U148A | ≤ -4.2
C76A C85A | -1.96
A91C C96A A120U A122C G143U | -4.07
A16C U33C U77A | ≤ -4.2
A16G C32U C72A C76U C85G A107U | ≤ -4.2
C5A A17C G88A G117U | -3.46
A66G | -2.32
